Experimental data reported in publication doi:10.1101/774737.

Biological target: dynein intermediate chain (DIC), endogenous, human iPSC-derived motor neurons (human (endogenous in iPSC-derived motor neurons)) (UniProt O14576)
Experiment: proximity ligation

Sequence of UniProt O14576 (O14576 whole entry): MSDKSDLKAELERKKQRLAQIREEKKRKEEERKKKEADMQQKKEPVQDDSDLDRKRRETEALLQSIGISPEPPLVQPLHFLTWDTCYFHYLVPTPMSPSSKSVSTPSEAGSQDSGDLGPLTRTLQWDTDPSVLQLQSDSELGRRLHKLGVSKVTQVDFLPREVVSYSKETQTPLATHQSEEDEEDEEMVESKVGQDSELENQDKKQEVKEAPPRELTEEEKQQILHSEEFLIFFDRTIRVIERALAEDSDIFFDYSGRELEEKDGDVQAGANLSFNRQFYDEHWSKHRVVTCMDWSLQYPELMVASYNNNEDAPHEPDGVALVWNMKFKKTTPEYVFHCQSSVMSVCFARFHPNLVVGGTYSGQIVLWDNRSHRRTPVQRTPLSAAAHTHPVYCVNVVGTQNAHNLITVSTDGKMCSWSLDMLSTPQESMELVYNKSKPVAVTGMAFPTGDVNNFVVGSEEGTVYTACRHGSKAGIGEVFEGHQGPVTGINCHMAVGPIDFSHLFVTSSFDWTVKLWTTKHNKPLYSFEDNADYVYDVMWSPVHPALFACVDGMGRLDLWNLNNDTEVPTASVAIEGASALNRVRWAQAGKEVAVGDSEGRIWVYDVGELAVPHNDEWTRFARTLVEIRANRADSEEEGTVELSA

- PLA puncta (C9orf72 iPSC-derived MN distal axons, without peptides): 8.9
Substance: CRMP4, endogenous, human iPSC-derived motor neurons (from UniProt Q14195 1-570) (natural protein)
